Our source for the Kd and koff values is publication PMC7076219 (2020).

Experiment [1] deals with T1, CD44/HCELL (hematopoietic cell E- and/or L-selectin ligand) (human (endogenous in KG1a), UniProt P16070-12 21-361). In words: SPR. Background: SPR reads the build-up and loss of mass on a sensor chip optically.
In experiment [2] the target is T1, CD44/HCELL (hematopoietic cell E- …). Put plainly: SPR. This is another data set of the same source.

Several values for one entry are separate records, joined by “and”; a condition that tells them apart may be missing. Equal values may be shown once.

Usually Kd stands for a measure of binding affinity in units of concentration. As usually defined, the koff is the first-order rate constant of dissociation.

T1 sequence (P16070 other isoform, or with tags, fused parts or gaps): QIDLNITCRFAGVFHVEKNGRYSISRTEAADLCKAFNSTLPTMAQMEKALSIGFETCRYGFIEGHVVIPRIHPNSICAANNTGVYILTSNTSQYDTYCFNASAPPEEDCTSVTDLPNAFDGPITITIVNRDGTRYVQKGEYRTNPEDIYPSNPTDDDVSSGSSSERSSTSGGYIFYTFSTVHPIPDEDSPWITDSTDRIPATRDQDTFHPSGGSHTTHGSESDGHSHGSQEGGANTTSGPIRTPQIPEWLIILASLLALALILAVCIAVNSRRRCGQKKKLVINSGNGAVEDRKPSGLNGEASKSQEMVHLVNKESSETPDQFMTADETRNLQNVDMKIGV

B1: E-S0 (mouse E-selectin lectin and EGF domains, no SCR domains) (domain or fragment)
chain: WYYNASSELMTYDEASAYCQRDYTHLVAIQNKEEINYLNSNLKHSPSYYWIGIRKVNNVWIWVGTGKPLTEEAQNWAPGEPNNKQRNEDCVEIYIQRTKDSGMWNDERCNKKKLALCYTASCTNASCSGHGECIETINSYTCKCHPGFLGPNCEQ
In experiment [1], B1 displayed a Kd of 18700 nM. Also, the koff in experiment [2] was 5e-05 s⁻¹ and 7e-05 s⁻¹.

B2: E-S6 (monomeric full-length extracellular mouse E-selectin) (domain or fragment)
chain: WYYNASSELMTYDEASAYCQRDYTHLVAIQNKEEINYLNSNLKHSPSYYWIGIRKVNNVWIWVGTGKPLTEEAQNWAPGEPNNKQRNEDCVEIYIQRTKDSGMWNDERCNKKKLALCYTASCTNASCSGHGECIETINSYTCKCHPGFLGPNCEQAVTCKPQEHPDYGSLNCSHPFGPFSYNSSCSFGCKRGYLPSSMETTVRCTSSGEWSAPAPACHVVECEALTHPAHGIRKCSSNPGSYPWNTTCTFDCVEGYRRVGAQNLQCTSSGIWDNETPSCKAVTCDAIPQPQNGFVSCSHSTAGELAFKSSCNFTCEQSFTLQGPAQVECSAQGQWTPQIPVCKAVQCEALSAPQQGNMKCLPSASGPFQNGSSCEFSCEEGFELKGSRRLQCGPRGEWDSKKPTCSAVKCDDVPRPQNGVMECAHATTGEFTYKSSCAFQCNEGFSLHGSAQLECTSQGKWTQEVPSCQVVQCPSLDVPGKMNMSCSGTAVFGTVCEFTCPDDWTLNGSAVLTCGATGRWSGMPPTCEAPVSPTRP
Consider B2, for which binding in experiment [1] was put at a Kd of 1700 nM. Besides, the koff in experiment [2] is 0.000225 s⁻¹ and 0.00014 s⁻¹.

B3: E-S2-A28H (E-S2 with the A28H mutation in the lectin domain) (domain or fragment)
chain: WYYNASSELMTYDEASAYCQRDYTHLVHIQNKEEINYLNSNLKHSPSYYWIGIRKVNNVWIWVGTGKPLTEEAQNWAPGEPNNKQRNEDCVEIYIQRTKDSGMWNDERCNKKKLALCYTASCTNASCSGHGECIETINSYTCKCHPGFLGPNCEQAVTCKPQEHPDYGSLNCSHPFGPFSYNSSCSFGCKRGYLPSSMETTVRCTSSGEWSAPAPACHVVECEALTHPAHGIRKCSSNPGSYPWNTTCTFDCVEGYRRVGAQNLQCTSSGIWDNETPSCKA
In turn, B3 had a Kd in experiment [1] of 1190 nM. The koff in experiment [2] is 0.0002 s⁻¹ and 0.00011 s⁻¹.

B4: E-S2 (truncated mouse E-selectin with only the first two SCR domains) (domain or fragment)
chain: WYYNASSELMTYDEASAYCQRDYTHLVAIQNKEEINYLNSNLKHSPSYYWIGIRKVNNVWIWVGTGKPLTEEAQNWAPGEPNNKQRNEDCVEIYIQRTKDSGMWNDERCNKKKLALCYTASCTNASCSGHGECIETINSYTCKCHPGFLGPNCEQAVTCKPQEHPDYGSLNCSHPFGPFSYNSSCSFGCKRGYLPSSMETTVRCTSSGEWSAPAPACHVVECEALTHPAHGIRKCSSNPGSYPWNTTCTFDCVEGYRRVGAQNLQCTSSGIWDNETPSCKA
B4: the koff in experiment [2] is 0.00016 s⁻¹ and 0.00014 s⁻¹.
